Data reported in doi:10.1101/2021.01.27.428466 (bioRxiv, 2021).

Molecular target: T1, receptor-binding domain (RBD) of the spike protein of SARS-CoV-2 (SARS-CoV-2, UniProt P0DTC2)
T1 construct: also called re-engineered RBD
Experiment: SEC
Settings: both partners purified

B1: Sb16 (VHH)
VHH: QVQLVESGGGLVQAGGSLRLSCAASGFPVAYKTMWWYRQAPGKEREWVAAIESYGIKWTRYADSVKGRFTISRDNAKNTVYLQMNSLKPEDTAVYYCIVWVGAQYHGQGTQVTVSA
B1: binds.
